The term Ki denotes a dissociation constant, usually derived from enzyme kinetics or from competition with a known ligand.

Test [1] has as its target T1, human amylin receptor 1 (hAMY1R): human calcitonin receptor co-expressed with human RAMP1 in UMUC3 cells (human, UniProt P30988 25-474; O60894 27-148). Put plainly: cell-based or functional assay.
Test [2] has as its target T2, human calcitonin receptor (hCTR) (human, UniProt P30988 25-474).
T2 sequence (looked up): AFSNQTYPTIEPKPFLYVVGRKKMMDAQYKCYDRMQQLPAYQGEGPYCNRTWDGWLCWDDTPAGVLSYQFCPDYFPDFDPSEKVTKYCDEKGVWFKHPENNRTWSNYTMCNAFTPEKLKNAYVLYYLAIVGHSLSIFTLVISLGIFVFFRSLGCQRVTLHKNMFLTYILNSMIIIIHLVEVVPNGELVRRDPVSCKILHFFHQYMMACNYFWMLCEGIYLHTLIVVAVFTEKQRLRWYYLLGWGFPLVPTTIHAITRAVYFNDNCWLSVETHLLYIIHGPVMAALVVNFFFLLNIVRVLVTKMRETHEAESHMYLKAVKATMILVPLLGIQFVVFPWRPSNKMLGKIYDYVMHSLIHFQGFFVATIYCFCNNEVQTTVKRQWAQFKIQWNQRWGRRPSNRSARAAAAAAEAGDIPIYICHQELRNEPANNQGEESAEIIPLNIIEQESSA
Put plainly: cell-based or functional assay.

Test [3] addresses T1, human amylin receptor 1 (hAMY1R): human …. Put plainly: competitive radioligand binding filter assay, hAMY1R membranes, displacement of 125I-rAMY. The method, then:
The equilibrium dissociation constants (Kd) for the various receptor/radioligand interactions are determined from saturation binding analysis using the same reagents and buffers as described below for compound testing.
Binding reactions are carried out in 0.1 mL total reaction volume in a polystyrene 96 deep-well assay block. […] The binding reaction is initiated by the addition of 0.05 mL of 200 μg/mL hAMY1R diluted in assay buffer to the radioactivity. Assay blocks are gently vortexed, sealed with parafilm, and incubated at RT for approximately 20 hours.
On the technique in general: Loss of bound radioactivity is the signal in a displacement assay; it reports binding, not function.

The target of test [4] is T2, human calcitonin receptor (hCTR). The test can be described thus: competitive radioligand binding filter assay, hCTR membranes, displacement of 125I-hCT.

Numbered stars: 1 amine (or outer) side, 2 acyl side, 3 side chain; on linkers, the order of the positions; unused ones are H or OH. Bridge positions count the residues as written; N and C are the ends. Square brackets hold non-standard residues; d marks the D form. Side chains are listed from the residue outwards. Ends that are not written are not given here. * marks the point of attachment. C20 diacid = O=C(O)CCCCCCCCCCCCCCCCCCC(=O)*; γGlu = O=C(O)[C@H](CCC(=O)[*:2])N[*:1]; αMeF = C[C@](N)(Cc1ccccc1)C(=O)O; NMeD = CN[C@@H](CC(=O)O)C(=O)O; NMeN = CN[C@@H](CC(N)=O)C(=O)O; αMeL = CC(C)C[C@](C)(N)C(=O)O; Orn = NCCC[C@H](N)C(=O)O; AEEA = NCCOCCOCC(=O)O; CH2 = C([*:1])[*:2]

T1 sequence (O60894 27-148, chain 2 of 2, one chain of several): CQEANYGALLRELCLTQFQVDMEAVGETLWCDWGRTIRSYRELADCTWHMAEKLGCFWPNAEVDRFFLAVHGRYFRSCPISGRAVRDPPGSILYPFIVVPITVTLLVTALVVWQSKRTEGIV

B1: Compound III (peptide)
peptide: [γGlu]CNTATCATG[Orn]LAE[αMeF]LVRSSN[NMeD]FGPKLPPTEVGSNTY-NH2
modifications: bridge 2-7 via CH2
In the case of B1, the “hAMYIR cAMP EC50” value in test [1] turned out to be 0.156 nM. Moreover, in test [2], the “hCTR cAMP EC50” value was 16.3 nM.

B2: Compound V (peptide)
peptide: KCETATCATG[Orn]LAE[αMeF]LVRSSN[NMeD]FGPILPPTEVGSNTY-NH2
modifications: bridge 2-7 via CH2
In the case of B2, the “hAMYIR cAMP EC50” value in test [1] worked out at 0.139 nM. Besides, the “hCTR cAMP EC50” value in test [2] stood at 17 nM.

B3: Compound IX (peptide)
peptide: [γGlu]CNTATCATGKLAEFLVRSSNNFGPK([AEEA-AEEA-γGlu-C20 diacid])LPPTEVGSNTY-NH2
modifications: bridge 2-7 via CH2
Regarding B3, the “hAMYIR cAMP EC50” value in test [1] was 0.132 nM. For the same molecule, the “hCTR cAMP EC50” value in test [2] was found to be 18.9 nM.

B4: Compound IV (peptide)
peptide: [γGlu]CNTATCATG[Orn]LAE[αMeF]LVRSSN[NMeD]FGPK([γGlu-γGlu-C20 diacid])LPPTEVGSNTY-NH2
modifications: bridge 2-7 via CH2
notes: Acylated form of Compound III
For B4, the Ki in test [3] stood at 0.0296 nM; in test [4], 665 nM. The “hAMYIR cAMP EC50” value in test [1] stood at 0.107 nM. The “hCTR cAMP EC50” value in test [2] was determined as 6.14 nM.

B5: Compound I (peptide)
peptide: [γGlu]CNTATCATG[Orn]LAE[αMeF]LVRSSN[NMeN]FGPKLPPTEVGSNTY-NH2
modifications: bridge 2-7 via CH2
For the molecule B5, in test [1], the “hAMYIR cAMP EC50” value came to 0.133 nM. The “hCTR cAMP EC50” value in test [2] was found to be 18 nM.

B6: Compound II (peptide)
peptide: [γGlu]CNTATCATG[Orn]LAE[αMeF]LVRSSN[NMeN]FGPK([γGlu-γGlu-C20 diacid])LPPTEVGSNTY-NH2
modifications: bridge 2-7 via CH2
notes: Acylated form of Compound I
As to B6, the Ki in test [3] was determined as 0.017 nM; in test [4] it was 202 nM. Also, the “hAMYIR cAMP EC50” value in test [1] amounted to 0.075 nM. Further, the “hCTR cAMP EC50” value in test [2] turned out to be 2.34 nM.

B7: Compound X (peptide)
peptide: [γGlu]CNTATCATGKLAEFLVRSSNNFGPK([γGlu-AEEA-AEEA-C20 diacid])LPPTEVGSNTY-NH2
modifications: bridge 2-7 via CH2
Turning to B7, in test [1], the “hAMYIR cAMP EC50” value was 0.08 nM. For the same molecule, in test [2], the “hCTR cAMP EC50” value is 14 nM.

B8: Compound VIII (peptide)
peptide: K([γGlu-γGlu-C20 diacid])CETATCATG[Orn][αMeL]AEFLVRSSHNFGPILPPTEVGSNTY-NH2
modifications: bridge 2-7 via CH2
notes: Acylated form of Compound VII
B8: the inhibitory constant (Ki) in test [3] turned out to be 0.0435 nM; in test [4], 927 nM. Also, in test [1], the “hAMYIR cAMP EC50” value amounted to 0.107 nM. Further, the “hCTR cAMP EC50” value in test [2] amounted to 9.69 nM.

B9: Compound XII (peptide)
peptide: [γGlu]CNTATCATQ[Orn]LAEFLVRSSNNFGPK([AEEA-AEEA-γGlu-C20 diacid])LPPTEVGSNTY-NH2
modifications: bridge 2-7 via CH2
Take B9: the “hAMYIR cAMP EC50” value in test [1] came to 0.113 nM. The “hCTR cAMP EC50” value in test [2] amounted to 25.9 nM.

B10: Compound XIII (peptide)
peptide: [γGlu]CGTATCATG[Orn]LAEFLVRSSNNFGPK([γGlu-γGlu-C20 diacid])LPPTEVGSNTY-NH2
modifications: bridge 2-7 via CH2
B10: the “hAMYIR cAMP EC50” value in test [1] was 0.078 nM. Also, in test [2], the “hCTR cAMP EC50” value is 9.49 nM.

B11: Compound XI (peptide)
peptide: [γGlu]CNTATCATGKLAEFLVRSSNNFGPK([γGlu-γGlu-AEEA-C20 diacid])LPPTEVGSNTY-NH2
modifications: bridge 2-7 via CH2
B11: the “hAMYIR cAMP EC50” value in test [1] came to 0.038 nM. Besides, the “hCTR cAMP EC50” value in test [2] worked out at 10.5 nM.

B12: Compound VII (peptide)
peptide: KCETATCATG[Orn][αMeL]AEFLVRSSHNFGPILPPTEVGSNTY-NH2
modifications: bridge 2-7 via CH2
Regarding B12, the “hAMYIR cAMP EC50” value in test [1] came to 0.173 nM. Further, the “hCTR cAMP EC50” value in test [2] was determined as 11.9 nM.

B13: Compound VI (peptide)
peptide: K([γGlu-γGlu-C20 diacid])CETATCATG[Orn]LAE[αMeF]LVRSSN[NMeD]FGPILPPTEVGSNTY-NH2
modifications: bridge 2-7 via CH2
notes: Acylated form of Compound V
In the case of B13, the Ki was found to be 0.0445 nM in test [3] and 235 nM in test [4]. The “hAMYIR cAMP EC50” value in test [1] was found to be 0.107 nM. Further, the “hCTR cAMP EC50” value in test [2] was found to be 13.2 nM.

The record behind these values is patent US20220288168A1 (Eli Lilly, published 2022).
